Test results as given in PMC11048322, “Weak Value Amplification-Based Biochip for Highly Sensitive Detection and Identification of Breast Cancer Exosomes”.

Key:
Details in all cases: protein: native; label: Au NP (about 58 nm) via thiol
[1] = molecular target: T1, EpCAM (on MDA-MB-231 exosomes) (UniProt P16422 24-314); experiment: weak value amplification optical biosensor; multivalent Au NP-aptamer on exosomes; CW shift about 0.85 nm; Au NP-aptamer dispersed in ultrapure water, flowed over exosomes captured on Zr-ionized glass; pH and temperature not stated
T1 sequence: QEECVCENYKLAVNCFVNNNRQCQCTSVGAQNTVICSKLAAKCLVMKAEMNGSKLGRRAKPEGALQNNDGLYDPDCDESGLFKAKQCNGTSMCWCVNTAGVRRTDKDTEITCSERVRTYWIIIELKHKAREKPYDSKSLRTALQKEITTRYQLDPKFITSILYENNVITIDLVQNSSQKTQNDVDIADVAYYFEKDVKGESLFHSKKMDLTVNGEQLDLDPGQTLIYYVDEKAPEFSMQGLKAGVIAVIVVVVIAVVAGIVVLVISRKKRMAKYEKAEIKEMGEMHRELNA

[2] = molecular target: T2, CD63 (on MDA-MB-231 exosomes) (UniProt P08962 2-238); experiment: weak value amplification optical biosensor; TEM; multivalent Au NP-aptamer on exosomes; Au NP-aptamer dispersed in ultrapure water, flowed over exosomes captured on Zr-ionized glass; pH and temperature not stated
T2 sequence (P08962 2-238): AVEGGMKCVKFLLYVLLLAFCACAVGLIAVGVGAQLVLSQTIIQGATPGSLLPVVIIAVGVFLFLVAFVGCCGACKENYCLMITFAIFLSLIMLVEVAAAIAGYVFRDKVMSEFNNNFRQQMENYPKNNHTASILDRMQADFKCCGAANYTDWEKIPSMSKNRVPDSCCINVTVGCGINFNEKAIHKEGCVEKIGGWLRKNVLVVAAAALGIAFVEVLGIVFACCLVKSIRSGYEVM

[3] = molecular target: T2, CD63 (on MDA-MB-231 exosomes); experiment: weak value amplification optical biosensor; multivalent Au NP-aptamer on exosomes; no significant CW shift; Au NP-aptamer dispersed in ultrapure water, flowed over exosomes captured on Zr-ionized glass; pH and temperature not stated

B1: EpCAM aptamer (ssDNA)
DNA: CACTACAGAGGTTGCGTCTGTCCCACGTTGTCATGGGGGGTTGGCCTG
modifications: 5'-SH C6
binding result [1]: binds

B2: CD63 aptamer (ssDNA)
DNA: CACCCCACCTCGCTCCCGTGACACTAATGCTA
modifications: 5'-SH C6
binding result [2]: binds

B3: Scrambled CD63 (SCD63) (ssDNA)
DNA: ACTCTTCACCCGCACATTCGCATCGCCCAAGC
modifications: 5'-SH C6
binding result [3]: no binding
